Source: patent US9932382B2, “Kv2.1 channel-derived peptides and methods of use” (University of Pittsburgh—Of the Commonwealth System of …, priority 2014, dated 2018)
Values belong to the molecule of their own block, whether it stands above or below them.

Experiments:
Kv2.1/syntaxin binding = biological target: T1, Kv2.1/syntaxin binding (Homo sapiens, UniProt Q16623); experiment: Co-immunoprecipitation of Kv2.1 with syntaxin from transfected CHO cells; format: cell-based; settings: for effect on Kv2.1/syntaxin binding (co-immunoprecipitation): syntaxin-expressing CHO cells co-transfected with Kv2.1 and peptide plasmid, syntaxin immunoprecipitates probed for Kv2.1
T1 construct: expressed in transfected cells; host or cells: CHO cells
Description: For electrophysiological experiments, mixed cortical neuronal/glial cultures were prepared from embryonic day 16 (E16) Sprague-Dawley rats (Charles River Laboratories, Wilmington, Mass., USA). Donor rats were euthanized by gradual CO2 exposure. Cortices were dissociated with trypsin, and the resultant cell suspension, adjusted to 670,000 cells per well, was plated on glass coverslips in 6-well plates as described previously (Hartnett et al., J Neurochem 68, 1836-1845, 1997). Non-neuronal cell proliferation was inhibited after two weeks in culture with 1-2 μM cytosine arabinoside, and cultures utilized at three to four weeks in vitro. For neuronal transfection, cells were treated for five hours in serum-free medium with 2 μL LIPOFECTAMINE™ 2000 (Invitrogen, Carlsbad, Calif.), 50 μL Optimem (GIBCO, Grand Island, N.Y.), and 1.5 μg DNA per well. For CHO cell transfections, cells were plated on coverslips in 24-well plates at a density of 5.6×10^4 cells per well for electrophysiological measurements or in 100 mm dishes at a density of 1.7×10^6 cells per dish for biochemical studies. Cells were treated for 3-4 hours in serum-free medium with a total of 1.2 μL LIPOFECTAMINE™ and 0.28 μg DNA per well for electrophysiology, or 55.1 μL LIPOFECTAMINE™ and 7.33 μg DNA per dish for biochemistry. Following transfection, cells were maintained in F12 medium containing fetal bovine serum at 37° C., 5% CO2 for 24 hours prior to experimentation.
Protein was harvested by washing cell culture dishes with ice cold PBS followed by a short incubation with 1% 3-[(3-cholamidopropyl) dimethylammonio]-1-propanesulfonate buffer. Protein A/G agarose bead slurry (Santa Cruz, Dallas, Tex.) was added to the samples and rocked at 4° C. for 1 hour in order to pre-clear non-specific protein binding. Samples were then incubated overnight at 4° C. with the appropriate immunoprecipitating antibodies. Following another incubation with the bead slurry, the protein samples were prepared/denatured by the addition of sample preparation buffer (625 mM Tris, 25% glycerol, 2% sodium dodecyl sulfate (SDS), 0.01% bromophenol blue and 5% β-mercaptoethanol) and heated at 95° C. for 5 min prior to SDS polyacrylamide gel electrophoresis and immunoblotting.
Protein samples from equal amounts of cell lysate were separated on 10% sodium dodecyl sulfate SDS polyacrylamide gels by electrophoresis using the Mini Protean 3 System (Bio-Rad, Hercules, Calif.). Separated protein bands were transferred onto 0.2 μm nitrocellulose membranes (Bio-Rad), blocked with 1% bovine serum albumin (BSA) in PBS with 0.05% Tween 20 (PBST) at room temperature for 1 hour, and probed with appropriate primary antibodies diluted in PBST. Blots were then incubated with infrared fluorescent goat secondary antibodies at room temperature for 1 hour, visualized using the Odyssey Imaging System (LI-COR Biosciences, Lincoln, Nebr.), and quantified using infrared fluorimetry.
After establishing that C1a effectively precluded the oxidant-induced K^+ current increase in neurons, studies were performed to identify the sub-domains within C1a that could retain the ability to disrupt Kv2.1/syntaxin binding. C1a was divided into overlapping proximal and distal segments, hereafter referred to as C1a411-472 and C1a441-522, respectively. Co-immunoprecipitation experiments were performed to compare the ability of C1a and the smaller segments to displace Kv2.1 from syntaxin. Syntaxin immunoprecipitates of protein samples obtained from CHO cells transfected with a syntaxin-expressing plasmid, and co-transfected with Kv2.1 together with C1a, C1a411-472, or C1a441-522, were probed for Kv2.1.

human syntaxin = biological target: T2, human syntaxin (Homo sapiens, UniProt Q16623); experiment: Far-Western analysis of syntaxin binding to SPOT peptide arrays; settings: for syntaxin binding inferred from the overlapping peptide array: sequence deduced from or picked out of the 15-mer array, not spotted itself; for syntaxin binding to spotted peptide (fluorescence intensity): 15-mer peptides on PVDF membrane, human syntaxin over-expressing CHO cell lysate, four arrays
T2 construct: expressed in transfected cells; host or cells: CHO cells (lysate)
Description: FIG. 8: Binding of Kv2.1 peptides to syntaxin. The 76 overlapping Kv2.1 peptides were spot-plated as an array onto a polyvinylidene fluoride membrane using the SPOTS-synthesis method. Membranes were incubated with a human syntaxin over-expressing CHO cell lysate and a far-Western analysis of syntaxin binding to the peptide arrays was performed using a commercially available syntaxin antibody and fluorescently tagged secondary antibody. Fluorescence intensity was quantified as an index of syntaxin binding to the spot array. Bars represent the mean+/−SEM of binding in four independent arrays. […]

T2 sequence (Q16623 whole entry): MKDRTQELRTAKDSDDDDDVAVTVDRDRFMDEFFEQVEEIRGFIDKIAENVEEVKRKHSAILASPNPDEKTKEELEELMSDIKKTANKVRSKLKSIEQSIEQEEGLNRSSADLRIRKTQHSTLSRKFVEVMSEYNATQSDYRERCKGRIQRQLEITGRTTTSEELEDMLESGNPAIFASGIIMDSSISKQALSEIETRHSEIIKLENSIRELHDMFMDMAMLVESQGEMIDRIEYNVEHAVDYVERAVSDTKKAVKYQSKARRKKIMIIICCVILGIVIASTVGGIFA
T1 sequence (Q16623 whole entry): as above

Molecule: peptide #22: 15-mer, residues 472-486 of SEQ ID NO: 3 (DKVQDNHLSPNKWKW; listed as Rattus norvegicus)
syntaxin binding to spotted peptide (fluorescence intensity) (human syntaxin): initial peptide showing substantial binding

Molecule: peptide #28: 15-mer, residues 478-492 of SEQ ID NO: 3 (HLSPNKWKWTKRALS; listed as Rattus norvegicus)
syntaxin binding to spotted peptide (fluorescence intensity) (human syntaxin): final peptide showing substantial binding

B1: C1a411-472: proximal segment of C1a, residues 411-472 of rat Kv2.1 (protein, UniProt P15387 411-472, looked up, fragment)
chain: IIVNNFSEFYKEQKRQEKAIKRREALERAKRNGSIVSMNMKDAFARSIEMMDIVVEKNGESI
effect on Kv2.1/syntaxin binding (co-immunoprecipitation) (Kv2.1/syntaxin binding): did not

More lines, main results first:

mean±SEM ratio of Kv2.1 to syntaxin immunoblots (Kv2.1/syntaxin binding; CHO cells, n=3, baseline=0.24±0.08): 0.25±0.1
Molecule: C1a441-472: overlapping middle segment of C1a, residues 441-472 of rat Kv2.1 (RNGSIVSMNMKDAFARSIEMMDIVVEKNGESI; UniProt P15387 441-472, looked up, fragment)
effect on Kv2.1/syntaxin binding (co-immunoprecipitation) (Kv2.1/syntaxin binding): had no effect on syntaxin's ability to bind to Kv2.1

syntaxin binding inferred from the overlapping peptide array (human syntaxin): non-syntaxin-binding
Molecule: DIVVEEKNGE (DIVVEKNGE; listed as Rattus norvegicus) [reference compound]

syntaxin binding inferred from the overlapping peptide array (human syntaxin): represents the syntaxin-binding domain
Molecule: HLSPNKWKW (listed as Rattus norvegicus)
